Assay results: article PMC2657102, “Molecular cloning and characterization of a novel pyrethroid-hydrolyzing esterase originating from the Metagenome” (Microbial Cell Factories, 2008)
Values joined by “and” are separate entries in the source; they are usually repeats but may differ in a detail not shown here. Equal values may be shown once.

Tested on: CC1(C)C(C=C(Cl)Cl)C1C(=O)OCc1cccc(Oc2ccccc2)c1
Assay: purified protein
Conditions: analogous to ρ-nitrophenyl ester assay (50 mM sodium phosphate pH 7.0, 30°C)

Question: “Pye3 (pyrethroid-hydrolyzing esterase) (uncultured prokaryote)” was tested. Which Km did it give?
Answer: The Km was 0.10 µM and 0.18 µM.
